The nature of data set [1]: Enzyme kinetic studies of CPG2-derived enzymes in detergent soluble cell extracts, MTX as substrate. The class given is biochemical. The following applies: for Catalytic activity (%): specific activity of COS/CPG2* (50 ng CPG2*) assigned as 100%. An excerpt:
Detergent soluble cell extracts, and enzyme kinetic analyses have been described previously (Marais et al (1996) Cancer Res. 56, 4735-4742; Marais et al (1997) Nature Biotech. 15, 1373-1377).

Data set [2] in a line: CPG2 dimer stability by non-reducing SDS-polyacrylamide gel electrophoresis of COS cell extracts. The note with it: sample not heated.
Description: To test this, CPG2* was transiently expressed in COS cells and the stability of the dimers determined by non-reducing SDS-polyacrylamide gels.
Setting [3] is: substrate MTX, detergent soluble cell extract, read-out: Km (μM MTX).

“Also recorded” adds a separate entry of the source. Like-named read-outs stand apart in the source and are kept apart here.

B1: CPG2*(QTQ): cytosolic CPG2*(Q)3 with the glutamine at position 264 substituted with threonine (protein)
chain: ALAQKRDNVLFQAATDEQPAVIKTLEKLVNIETGTGDAEGIAAAGNFLEAELKNLGFTVTRSKSAGLVVGDNIVGKIKGRGGKNLLLMSHMDTVYLKGILAKAPFRVEGDKAYGPGIADDKGGNAVILHTLKLLKEYGVRDYGTITVLFNTDEEKGSFGSRDLIQEEAKLADYVLSFEPTSAGDEKLSLGTSGIAYVQVQITGKASHAGAAPELGVNALVEASDLVLRTMNIDDKAKNLRFTWTIAKAGQVSNIIPASATLNADVRYARNEDFDAAMKTLEERAQQKKLPEADVKVIVTRGRPAFNAGEGGKKLVDKAVAYYKEAGGTLGVEERTGGGTDAAYAALSGKPVIESLGLPGFGYHSDKAEYVDISAIPRRLYMAARLIMDLGAGK
Broadly, the Km is the substrate concentration at which the rate is half of its maximum. For the molecule B1, the “catalytic activity compared to CPG2*(Q)3” value in data set [1] (increase relative to CPG2*(Q)3) is listed as approximately 2.5 fold. Besides, the “increase in Km (decrease in apparent affinity for MTX) compared to CPG2*(Q)3” value in data set [1] (relative to CPG2*(Q)3) was approximately 12 fold. For the same molecule, the “Catalytic activity (%)” value in data set [1] came out at 78%. The Michaelis-Menten constant (Km) in data set [1] (setting [3]) was 125 µM. The dimer stability result in data set [2] is listed as “did not restore dimer stability; also recorded: not improved”.

B2: CPG2*(Q)3: cytosolic CPG2* bearing three asparagine to glutamine mutations (N222, N264, N272) (protein)
chain: ALAQKRDNVLFQAATDEQPAVIKTLEKLVNIETGTGDAEGIAAAGNFLEAELKNLGFTVTRSKSAGLVVGDNIVGKIKGRGGKNLLLMSHMDTVYLKGILAKAPFRVEGDKAYGPGIADDKGGNAVILHTLKLLKEYGVRDYGTITVLFNTDEEKGSFGSRDLIQEEAKLADYVLSFEPTSAGDEKLSLGTSGIAYVQVQITGKASHAGAAPELGVNALVEASDLVLRTMNIDDKAKNLRFQWTIAKAGQVSNIIPASATLNADVRYARNEDFDAAMKTLEERAQQKKLPEADVKVIVTRGRPAFNAGEGGKKLVDKAVAYYKEAGGTLGVEERTGGGTDAAYAALSGKPVIESLGLPGFGYHSDKAEYVDISAIPRRLYMAARLIMDLGAGK
With B2, the dimer stability result in data set [2] was “unstable”.

B3: CPG2*(N272): cytosolic CPG2* with N to L substitution at position 272 (protein)
chain: ALAQKRDNVLFQAATDEQPAVIKTLEKLVNIETGTGDAEGIAAAGNFLEAELKNLGFTVTRSKSAGLVVGDNIVGKIKGRGGKNLLLMSHMDTVYLKGILAKAPFRVEGDKAYGPGIADDKGGNAVILHTLKLLKEYGVRDYGTITVLFNTDEEKGSFGSRDLIQEEAKLADYVLSFEPTSAGDEKLSLGTSGIAYVQVNITGKASHAGAAPELGVNALVEASDLVLRTMNIDDKAKNLRFNWTIAKAGLVSNIIPASATLNADVRYARNEDFDAAMKTLEERAQQKKLPEADVKVIVTRGRPAFNAGEGGKKLVDKAVAYYKEAGGTLGVEERTGGGTDAAYAALSGKPVIESLGLPGFGYHSDKAEYVDISAIPRRLYMAARLIMDLGAGK
With B3, the dimer stability result in data set [2] is “formed stable dimers”.

B4: CPG2*(QAQ): cytosolic CPG2*(Q)3 with the glutamine at position 264 substituted with alanine (protein)
chain: ALAQKRDNVLFQAATDEQPAVIKTLEKLVNIETGTGDAEGIAAAGNFLEAELKNLGFTVTRSKSAGLVVGDNIVGKIKGRGGKNLLLMSHMDTVYLKGILAKAPFRVEGDKAYGPGIADDKGGNAVILHTLKLLKEYGVRDYGTITVLFNTDEEKGSFGSRDLIQEEAKLADYVLSFEPTSAGDEKLSLGTSGIAYVQVQITGKASHAGAAPELGVNALVEASDLVLRTMNIDDKAKNLRFAWTIAKAGQVSNIIPASATLNADVRYARNEDFDAAMKTLEERAQQKKLPEADVKVIVTRGRPAFNAGEGGKKLVDKAVAYYKEAGGTLGVEERTGGGTDAAYAALSGKPVIESLGLPGFGYHSDKAEYVDISAIPRRLYMAARLIMDLGAGK
For B4, the results for the “Catalytic activity (%)” value in data set [1] and in data set [1] (listed as COS/CPG2* (QAQ)) were “essentially inactive” and “Very low”, respectively. In addition, in data set [2], the dimer stability entry is “did not restore dimer stability; also recorded: not improved”.

B5: CPG2*(N264L): cytosolic CPG2* with N to L substitution at position 264 (protein)
chain: ALAQKRDNVLFQAATDEQPAVIKTLEKLVNIETGTGDAEGIAAAGNFLEAELKNLGFTVTRSKSAGLVVGDNIVGKIKGRGGKNLLLMSHMDTVYLKGILAKAPFRVEGDKAYGPGIADDKGGNAVILHTLKLLKEYGVRDYGTITVLFNTDEEKGSFGSRDLIQEEAKLADYVLSFEPTSAGDEKLSLGTSGIAYVQVNITGKASHAGAAPELGVNALVEASDLVLRTMNIDDKAKNLRFLWTIAKAGNVSNIIPASATLNADVRYARNEDFDAAMKTLEERAQQKKLPEADVKVIVTRGRPAFNAGEGGKKLVDKAVAYYKEAGGTLGVEERTGGGTDAAYAALSGKPVIESLGLPGFGYHSDKAEYVDISAIPRRLYMAARLIMDLGAGK
As to B5, the dimer stability result in data set [2] was “migrated as a monomer”.

B6: COS/stCPG2 (Q, NWV, Q): CPG2 with T266 altered to V266 in the context of Q222 and Q272 (protein, UniProt P06621 23-415, looked up, variant N222Q T266V N272Q)
Carboxypeptidase G2: ALAQKRDNVLFQAATDEQPAVIKTLEKLVNIETGTGDAEGIAAAGNFLEAELKNLGFTVTRSKSAGLVVGDNIVGKIKGRGGKNLLLMSHMDTVYLKGILAKAPFRVEGDKAYGPGIADDKGGNAVILHTLKLLKEYGVRDYGTITVLFNTDEEKGSFGSRDLIQEEAKLADYVLSFEPTSAGDEKLSLGTSGIAYVQVQITGKASHAGAAPELGVNALVEASDLVLRTMNIDDKAKNLRFNWVIAKAGQVSNIIPASATLNADVRYARNEDFDAAMKTLEERAQQKKLPEADVKVIVTRGRPAFNAGEGGKKLVDKAVAYYKEAGGTLGVEERTGGGTDAAYAALSGKPVIESLGLPGFGYHSDKAEYVDISAIPRRLYMAARLIMDLGAGK
modifications: surface tethered
notes: CPG2 with T266 altered to V266 in the context of Q222 and Q272
Consider B6, for which, in data set [1], the “Catalytic activity (%)” value stood at 55%. Moreover, the Km in data set [1] (setting [3]) amounted to 90 µM; in data set [1] (unit μm [sic], read-out: Km) it was 90 µM.

B7: stCPG2(QTQ): surface tethered CPG2, Q222, T264, Q272 (protein)
chain: ALAQKRDNVLFQAATDEQPAVIKTLEKLVNIETGTGDAEGIAAAGNFLEAELKNLGFTVTRSKSAGLVVGDNIVGKIKGRGGKNLLLMSHMDTVYLKGILAKAPFRVEGDKAYGPGIADDKGGNAVILHTLKLLKEYGVRDYGTITVLFNTDEEKGSFGSRDLIQEEAKLADYVLSFEPTSAGDEKLSLGTSGIAYVQVQITGKASHAGAAPELGVNALVEASDLVLRTMNIDDKAKNLRFTWTIAKAGQVSNIIPASATLNADVRYARNEDFDAAMKTLEERAQQKKLPEADVKVIVTRGRPAFNAGEGGKKLVDKAVAYYKEAGGTLGVEERTGGGTDAAYAALSGKPVIESLGLPGFGYHSDKAEYVDISAIPRRLYMAARLIMDLGAGKDLDDKGCPAEQRASPLTSIISAVVGILLVVVLGVVFGILIKRRQQKIRKYT
As for B7, the “Catalytic activity (%)” value in data set [1] is 29%. Also, in data set [1] (setting [3]), the Michaelis constant (Km) is 45 µM. Further, the dimer stability result in data set [2] is on record as “did nor form stable dimers”.

For the origin of these results see patent publication US20040014187A1, “Bacterial carboxypeptidase cpg2 variants and their use in gene directed enzyme prodrug therapy” (priority 2000, published 2004).
